In patent US20240035012A1 (WESTLAKE UNIVERSITY, published 2024):
Values joined by “and” are separate entries in the source; they are usually repeats but may differ in a detail not shown here. Equal values may be shown once.

B1: ACE2 M2-AP15-foldon (receptor)
chain: QSTIEEQAKYFLDKFNHEAEDLFYQSSLASWNYNTNITEENVQNMNNAGDKWSAFLKEQSTYAQMYPLQEIQNLTVKLQLQALQQNGSSVLSEDKSKRLNTILNTMSTIYSTGKVCNPDNPQECLLLEPGLNEIMANSLDYNERLWAWESWRSEVGKQLRPLYEEYVVLKNEMARANHYEDYGDYWRGDYEVNGVDGYDYSRGQLIEDVEHTFEEIKPLYEHLHAYVRAKLMNAYPSYISPIGCLPAHLLGDMWGRFWTNLYSLTVPFGQKPNIDVTDAMVDQAWDAQRIFKEAEKFFVSVGLPNMTQGFWEYSMLTDPGNVQKAVCHPTAWDLGKGDFRILMCTKVTMDDFLTAHHEMGHIQYDMAYAAQPFLLRNGANEGFHEAVGEIMSLSAATPKHLKSIGLLSPDFQEDNETEINFLLKQALTIVGTLPFTYMLEKWRWMVFKGEIPKDQWMKKWWEMKREIVGVVEPVPHDETYCDPASLFHVSNDYSFIRYYTRTLYQFQFQEALCQAAKHEGPLHKCDISNSTEAGQKLFNMLRLGKSEPWTLALENVVGAKNMNVRPLLNYFEPLFTWLKDQNKNSFVGWSTDWSPYADGSAPAPAPAPAPAPAPAPAPAPAPAPAPAPAPGSGYIPEAPRDGQAYVRKDGEWVLLSTFL
B2: ACE2 M1-AP15-foldon (receptor)
chain: QSTIEEQAKTFLDFFNIQAEDLFYQSSLASWNYNTNITEENVQNMNNAGDKWSAFLKEQSTLAQMYPLQEIQNLTVKLQLQALQQNGSSVLSEDKSKRLNTILNTMSTIYSTGKVCNPDNPQECLLLEPGLNEIMANSLDYNERLWAWESWRSEVGKQLRPLYEEYVVLKNEMARANHYEDYGDYWRGDYEVNGVDGYDYSRGQLIEDVEHTFEEIKPLYEHLHAYVRAKLMNAYPSYISPIGCLPAHLLGDMWGRFWTNLYSLTVPFGQKPNIDVTDAMVDQAWDAQRIFKEAEKFFVSVGLPNMTQGFWENSMLTDPGNVQKAVCHPTAWDLGKGDFRILMCTKVTMDDFLTAHHEMGHIQYDMAYAAQPFLLRNGANEGFHEAVGEIMSLSAATPKHLKSIGLLSPDFQEDNETEINFLLKQALTIVGTLPFTYMLEKWRWMVFKGEIPKDQWMKKWWEMKREIVGVVEPVPHDETYCDPASLFHVSNDYSFIRYYTRTLYQFQFQEALCQAAKHEGPLHKCDISNSTEAGQKLFNMLRLGKSEPWTLALENVVGAKNMNVRPLLNYFEPLFTWLKDQNKNSFVGWSTDWSPYADGSAPAPAPAPAPAPAPAPAPAPAPAPAPAPAPGSGYIPEAPRDGQAYVRKDGEWVLLSTFL
B3: ACE2 M5-AP15-foldon (receptor)
chain: QSTIEEQAKYFLDKFNAEAEDLFYQSSLASWNYNTNITEENVQNMNNAGDKWSAFLKEQSTYAQMYPLQEIQNLTVKLQLQALQQNGSSVLSEDKSKRLNTILNTMSTIYSTGKVCNPDNPQECLLLEPGLNEIMANSLDYNERLWAWESWRSEVGKQLRPLYEEYVVLKNEMARANHYEDYGDYWRGDYEVNGVDGYDYSRGQLIEDVEHTFEEIKPLYEHLHAYVRAKLMNAYPSYISPIGCLPAHLLGDMWGRFWTNLYSLTVPFGQKPNIDVTDAMVDQAWDAQRIFKEAEKFFVSVGLPNMTQGFWEYSMLTDPGNVQKAVCHPTAWDLGKGDFRILMCTKVTMDDFLTAHHEMGHIQYDMAYAAQPFLLRNGANEGFHEAVGEIMSLSAATPKHLKSIGLLSPDFQEDNETEINFLLKQALTIVGTLPFTYMLEKWRWMVFKGEIPKDQWMKKWWEMKREIVGVVEPVPHDETYCDPASLFHVSNDYSFIRYYTRTLYQFQFQEALCQAAKHEGPLHKCDISNSTEAGQKLFNMLRLGKSEPWTLALENVVGAKNMNVRPLLNYFEPLFTWLKDQNKNSFVGWSTDWSPYADGSAPAPAPAPAPAPAPAPAPAPAPAPAPAPAPGSGYIPEAPRDGQAYVRKDGEWVLLSTFL
B4: ACE2 M4-AP15-foldon (receptor)
chain: QSTIEEQAKYFLDFFNIQAEDLFYQSSLASWNYNTNITEENVQNMNNAGDKWSAFLKEQSTYAQMYPLQEIQNLTVKLQLQALQQNGSSVLSEDKSKRLNTILNTMSTIYSTGKVCNPDNPQECLLLEPGLNEIMANSLDYNERLWAWESWRSEVGKQLRPLYEEYVVLKNEMARANHYEDYGDYWRGDYEVNGVDGYDYSRGQLIEDVEHTFEEIKPLYEHLHAYVRAKLMNAYPSYISPIGCLPAHLLGDMWGRFWTNLYSLTVPFGQKPNIDVTDAMVDQAWDAQRIFKEAEKFFVSVGLPNMTQGFWEYSMLTDPGNVQKAVCHPTAWDLGKGDFRILMCTKVTMDDFLTAHHEMGHIQYDMAYAAQPFLLRNGANEGFHEAVGEIMSLSAATPKHLKSIGLLSPDFQEDNETEINFLLKQALTIVGTLPFTYMLEKWRWMVFKGEIPKDQWMKKWWEMKREIVGVVEPVPHDETYCDPASLFHVSNDYSFIRYYTRTLYQFQFQEALCQAAKHEGPLHKCDISNSTEAGQKLFNMLRLGKSEPWTLALENVVGAKNMNVRPLLNYFEPLFTWLKDQNKNSFVGWSTDWSPYADGSAPAPAPAPAPAPAPAPAPAPAPAPAPAPAPGSGYIPEAPRDGQAYVRKDGEWVLLSTFL

biological target: SARS-CoV-2 spike protein (SARS-CoV-2-S) (SARS-CoV-2, UniProt P0DTC2 14-1273); assay: cell-based or functional assay

| Binder | IC50, inhibition of SARS-CoV-2 pseudotyped virus (luciferase), Caco-2 cells |
| --- | --- |
| B1 | 0.071 µg/ml and 0.177 nM |
| B2 | 0.202 µg/ml and 0.505 nM |
| B3 | 0.052 µg/ml and 0.13 nM |
| B4 | 0.071 µg/ml and 0.177 nM |
